{
  "source": "the Human Domainome abundance scans (Beltran et al. 2025)",
  "parents": {"B1": {"name": "E3 ubiquitin-protein ligase TRIM36, residues 208 to 252; numbered along this chain, Q9NQ86 (parent)", "chain": "KILMCPEHETERINMYCELCRRPVCHLCKLGGNHANHRVTTMSSA"}},
  "note": "± gives the uncertainty stated by the source.",
  "data": [
    {"variants_of": "B1", "experiment": "abundance fitness (aPCA) (normalised: wild type 0, dead -1); higher = more abundant; growth selection in yeast, the domain comes from the species named", "details": "Homo sapiens", "values": [
      {"variant": "KILMCPEHETERINMYCELCRRPVCHLLKLGGNHANHRVTTMSSA", "abundance fitness": "-0.826 ± 0.06"},
      {"variant": "KILMCPEHETERINMYCELCRRPVCHLHKLGGNHANHRVTTMSSA", "abundance fitness": "-0.763 ± 0.16"},
      {"variant": "KILMCPEHETERINMYCELCRRPVCHLFKLGGNHANHRVTTMSSA", "abundance fitness": "-1.14 ± 0.23"},
      {"variant": "KILMCPEHETERINMYCELCRRPVCHLVKLGGNHANHRVTTMSSA", "abundance fitness": "-0.525 ± 0.062"},
      {"variant": "KILMCPEHETERINMYCELCRRPVCHLGKLGGNHANHRVTTMSSA", "abundance fitness": "-0.608 ± 0.05"},
      {"variant": "KILMCPEHETERINMYCELCRRPVCHLAKLGGNHANHRVTTMSSA", "abundance fitness": "-0.672 ± 0.079"},
      {"variant": "KILMCPEHETERINMYCELCRRPVCHLMKLGGNHANHRVTTMSSA", "abundance fitness": "-0.723 ± 0.13"},
      {"variant": "KILMCPEHETERINMYCELCRRPVCHLNKLGGNHANHRVTTMSSA", "abundance fitness": "-0.546 ± 0.41"},
      {"variant": "KILMCPEHETERINMYCELCRRPVCHLWKLGGNHANHRVTTMSSA", "abundance fitness": "-0.91 ± 0.072"},
      {"variant": "KILMCPEHETERINMYCELCRRPVCHLDKLGGNHANHRVTTMSSA", "abundance fitness": "0.302 ± 0.27"},
      {"variant": "KILMCPEHETERINMYCELCRRPVCHLKKLGGNHANHRVTTMSSA", "abundance fitness": "-0.592 ± 0.13"},
      {"variant": "KILMCPEHETERINMYCELCRRPVCHLQKLGGNHANHRVTTMSSA", "abundance fitness": "-0.399 ± 0.068"},
      {"variant": "KILMCPEHETERINMYCELCRRPVCHLRKLGGNHANHRVTTMSSA", "abundance fitness": "-0.637 ± 0.052"},
      {"variant": "KILMCPEHETERINMYCELCRRPVCHLSKLGGNHANHRVTTMSSA", "abundance fitness": "-0.445 ± 0.059"},
      {"variant": "KILMCPEHETERINMYCELCRRPVCHLIKLGGNHANHRVTTMSSA", "abundance fitness": "-0.613 ± 0.09"},
      {"variant": "KILMCPEHETERINMYCELCRRPVCHLYKLGGNHANHRVTTMSSA", "abundance fitness": "-0.904 ± 0.27"},
      {"variant": "KILMCPEHETERINMYCELCRRPVCHLTKLGGNHANHRVTTMSSA", "abundance fitness": "-0.777 ± 0.13"},
      {"variant": "KILMCPEHETERINMYCELCRRPVCHLEKLGGNHANHRVTTMSSA", "abundance fitness": "-0.275 ± 0.057"},
      {"variant": "KILMCPEHETERINMYCELCRRPVCHLPKLGGNHANHRVTTMSSA", "abundance fitness": "-0.579 ± 0.088"},
      {"variant": "KILMCPEHETERINMYCELCRRPVTHLCKLGGNHANHRVTTMSSA", "abundance fitness": "-0.612 ± 0.062"},
      {"variant": "KILMCPEHETERINMYCELCRRPVAHLCKLGGNHANHRVTTMSSA", "abundance fitness": "-0.603 ± 0.05"},
      {"variant": "KILMCPEHETERINMYCELCRRPVEHLCKLGGNHANHRVTTMSSA", "abundance fitness": "-0.48 ± 0.072"},
      {"variant": "KILMCPEHETERINMYCELCRRPVSHLCKLGGNHANHRVTTMSSA", "abundance fitness": "-0.665 ± 0.054"},
      {"variant": "KILMCPEHETERINMYCELCRRPVHHLCKLGGNHANHRVTTMSSA", "abundance fitness": "-0.603 ± 0.12"},
      {"variant": "KILMCPEHETERINMYCELCRRPVNHLCKLGGNHANHRVTTMSSA", "abundance fitness": "-0.5 ± 0.21"},
      {"variant": "KILMCPEHETERINMYCELCRRPVQHLCKLGGNHANHRVTTMSSA", "abundance fitness": "-0.532 ± 0.069"},
      {"variant": "KILMCPEHETERINMYCELCRRPVYHLCKLGGNHANHRVTTMSSA", "abundance fitness": "-0.805 ± 0.075"},
      {"variant": "KILMCPEHETERINMYCELCRRPVLHLCKLGGNHANHRVTTMSSA", "abundance fitness": "-0.81 ± 0.059"},
      {"variant": "KILMCPEHETERINMYCELCRRPVWHLCKLGGNHANHRVTTMSSA", "abundance fitness": "-1.1 ± 0.091"},
      {"variant": "KILMCPEHETERINMYCELCRRPVKHLCKLGGNHANHRVTTMSSA", "abundance fitness": "-0.572 ± 0.087"},
      {"variant": "KILMCPEHETERINMYCELCRRPVVHLCKLGGNHANHRVTTMSSA", "abundance fitness": "-0.854 ± 0.059"},
      {"variant": "KILMCPEHETERINMYCELCRRPVGHLCKLGGNHANHRVTTMSSA", "abundance fitness": "-0.556 ± 0.053"},
      {"variant": "KILMCPEHETERINMYCELCRRPVIHLCKLGGNHANHRVTTMSSA", "abundance fitness": "-0.814 ± 0.1"},
      {"variant": "KILMCPEHETERINMYCELCRRPVPHLCKLGGNHANHRVTTMSSA", "abundance fitness": "-0.723 ± 0.07"},
      {"variant": "KILMCPEHETERINMYCELCRRPVDHLCKLGGNHANHRVTTMSSA", "abundance fitness": "-0.553 ± 0.11"},
      {"variant": "KILMCPEHETERINMYCELCRRPVMHLCKLGGNHANHRVTTMSSA", "abundance fitness": "-0.618 ± 0.1"},
      {"variant": "KILMCPEHETERINMYCELCRRPVFHLCKLGGNHANHRVTTMSSA", "abundance fitness": "-0.752 ± 0.23"},
      {"variant": "KILMCPEHETERINMYCELCRRPVRHLCKLGGNHANHRVTTMSSA", "abundance fitness": "-0.729 ± 0.054"},
      {"variant": "KILMCPEHETERINMYCELCRRSVCHLCKLGGNHANHRVTTMSSA", "abundance fitness": "-0.058 ± 0.065"},
      {"variant": "KILMCPEHETERINMYCELCRRRVCHLCKLGGNHANHRVTTMSSA", "abundance fitness": "-0.148 ± 0.05"},
      {"variant": "KILMCPEHETERINMYCELCRRVVCHLCKLGGNHANHRVTTMSSA", "abundance fitness": "-0.081 ± 0.063"},
      {"variant": "KILMCPEHETERINMYCELCRRMVCHLCKLGGNHANHRVTTMSSA", "abundance fitness": "-0.189 ± 0.092"},
      {"variant": "KILMCPEHETERINMYCELCRRYVCHLCKLGGNHANHRVTTMSSA", "abundance fitness": "-0.069 ± 0.098"},
      {"variant": "KILMCPEHETERINMYCELCRRQVCHLCKLGGNHANHRVTTMSSA", "abundance fitness": "-0.1 ± 0.071"},
      {"variant": "KILMCPEHETERINMYCELCRRTVCHLCKLGGNHANHRVTTMSSA", "abundance fitness": "0.019 ± 0.08"},
      {"variant": "KILMCPEHETERINMYCELCRRNVCHLCKLGGNHANHRVTTMSSA", "abundance fitness": "-0.032 ± 0.077"},
      {"variant": "KILMCPEHETERINMYCELCRRPVCHLCKCGGNHANHRVTTMSSA", "abundance fitness": "-0.023 ± 0.063"},
      {"variant": "KILMCPEHETERINMYCELCRRPVCHLCKDGGNHANHRVTTMSSA", "abundance fitness": "0.083 ± 0.063"},
      {"variant": "KILMCPEHETERINMYCELCRRPVCHLCKAGGNHANHRVTTMSSA", "abundance fitness": "0.094 ± 0.05"},
      {"variant": "KILMCPEHETERINMYCELCRRPVCHFCKLGGNHANHRVTTMSSA", "abundance fitness": "-0.182 ± 0.083"},
      {"variant": "KILMCPEHETERINMYCELCRRPVCHCCKLGGNHANHRVTTMSSA", "abundance fitness": "-0.196 ± 0.064"},
      {"variant": "KILMCPEHETERINMYCELCRRPVCHWCKLGGNHANHRVTTMSSA", "abundance fitness": "-0.223 ± 0.052"},
      {"variant": "KILMCPEHETERINMYCELCRRPVCHGCKLGGNHANHRVTTMSSA", "abundance fitness": "-0.141 ± 0.043"},
      {"variant": "KILMCPEHETERINMYCELCRRPVCHICKLGGNHANHRVTTMSSA", "abundance fitness": "-0.041 ± 0.064"},
      {"variant": "KILMCPEHETERINMYCELCRRPVCHPCKLGGNHANHRVTTMSSA", "abundance fitness": "-0.355 ± 0.071"},
      {"variant": "KILMCPEHETERINMYCELCRRPVCHYCKLGGNHANHRVTTMSSA", "abundance fitness": "-0.222 ± 0.16"},
      {"variant": "KILMCPEHETERINMYCELCRRPVCHSCKLGGNHANHRVTTMSSA", "abundance fitness": "-0.003 ± 0.055"}
    ]}
  ]
}
